Source: patent US20220332804A1 (CSL INNOVATION, published 2022)
Residue numbers refer to the chain shown, from its start.

Key:
Test in all cases: SPR, antibody captured, C2 as analyte;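 also: biacore at 37 °C, anti-C2 mAbs held by immobilised goat anti-human IgG, C2 alanine or serine mutants injected, double-referenced sensorgrams fitted to a 1:1 kinetic or steady-state model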
[1] = target: T1, human C2 M316A (human, UniProt P06681 21-752)
T1 sequence: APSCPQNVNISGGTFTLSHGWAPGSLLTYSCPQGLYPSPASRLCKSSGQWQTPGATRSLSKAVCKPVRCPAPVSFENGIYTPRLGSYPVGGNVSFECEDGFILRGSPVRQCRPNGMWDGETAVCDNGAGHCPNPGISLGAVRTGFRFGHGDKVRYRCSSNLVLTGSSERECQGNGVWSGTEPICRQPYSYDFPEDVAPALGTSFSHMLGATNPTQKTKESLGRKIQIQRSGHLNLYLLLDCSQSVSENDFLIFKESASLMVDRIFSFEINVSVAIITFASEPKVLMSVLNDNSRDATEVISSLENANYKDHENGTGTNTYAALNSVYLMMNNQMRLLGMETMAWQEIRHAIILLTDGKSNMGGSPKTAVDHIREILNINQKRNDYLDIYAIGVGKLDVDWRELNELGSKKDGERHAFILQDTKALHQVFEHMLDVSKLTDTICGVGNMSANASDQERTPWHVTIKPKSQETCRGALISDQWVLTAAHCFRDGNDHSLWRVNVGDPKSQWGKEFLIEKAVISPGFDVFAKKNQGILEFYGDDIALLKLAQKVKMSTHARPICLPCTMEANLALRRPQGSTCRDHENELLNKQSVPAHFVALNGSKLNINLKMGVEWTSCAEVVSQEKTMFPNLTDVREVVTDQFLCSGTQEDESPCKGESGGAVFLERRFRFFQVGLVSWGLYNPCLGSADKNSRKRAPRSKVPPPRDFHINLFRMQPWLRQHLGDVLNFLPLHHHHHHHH
Method: (§1) Surface plasmon resonance (SPR, Biacore) was used for all binding affinity analyses. In brief, goat anti-human IgG was directly immobilised onto the carboxymethyl dextran surface of CM5 sensorchips to approximately 12,000 RU using standard NHS/EDC chemistry at pH 5. The immobilised antibody surface was pre-conditioned with ten injections of polyclonal human IgG (Privigen 60 s) prepared at 1 μg/mL. Ligands (anti-C2 mAbs) were captured at the beginning of each cycle as described below. An adjacent spot or flow cell in which only Polyclonal IgG was capture was used as a reference surface. The goat anti-human IgG Fc antibody surface was regenerate in 100 mM H3PO4, injected for 45 seconds at the end of each cycle. Experiments were performed at 37° C. and the flow rate of each experiment was kept constant at 30 μL/min.
(§2) Sensogram data was double-referenced against a reference anti-IgG surface (i.e. minus anti-C2 mAb) and blank buffer injections obtained within each experiment. The binding data was fit to 1:1 (kinetic or steady-state) model using local Rmax and null refraction index (RI=0) when appropriate. Buffers and solutions were filtered (0.22 μm) prior to use.

[2] = target: T2, human C2 G432A (human, UniProt P06681 21-752)
T2 sequence: T1 sequence with A296M, G412A
Method: as §1, §2

[3] = target: T3, human C2 H435A (human, UniProt P06681 21-752)
T3 sequence: T1 sequence with A296M, H415A
Method: as §1, §2

[4] = target: T4, human C2 K457A (human, UniProt P06681 21-752)
T4 sequence: T1 sequence with A296M, K437A
Method: as §1, §2

B1: RF16-242 (antibody, human IgG4 S228P, lambda, V domains shown)
VH: EVQLLQSGAEVKKPGESLKISCKGSGYSFTSYWIGWVRQMPGKGLEWMGIIYPGDSDTRYSPSFQGQVTISADKSISTAYLQWSSLKASDTAMYYCARRGHYGDYFDYWGQGTLVTVSS
VL: SYELTQPPSVSVSPGQTARITCSGDALPKKYAYWYHQKSGQAPVLVIYEDRRRPSEIPERFSGSSSGTMATLTITGAQVEDEGVYFCYSRDRAGNQRVFGGGTQLTVLG
notes: pH-dependent anti-C2 antibody from a phage display library
- Kd [1]: 10.1 nM
- Kd [2]: 8.8 nM
- Kd [3]: 62.5 nM
- Kd [4]: 233 nM
